In paper PMC3776414:

Legend:
[1] = target: calmodulin (CaM) cysteine mutant M76C (UniProt P0DP23); test: solvatochromic fluorescence
[2] = target: calmodulin (CaM) cysteine mutant E11C (UniProt P0DP23); test: solvatochromic fluorescence
[3] = target: calmodulin (CaM) cysteine mutant M145C (UniProt P0DP23); test: solvatochromic fluorescence
[4] = target: Alexa Fluor 555-labeled E11C calmodulin mutant (UniProt P0DP23); test: FRET or BRET
[5] = target: Alexa Fluor 594-modified E11C CaM (UniProt P0DP23); test: FRET or BRET
[6] = target: calmodulin (CaM) cysteine mutant E11C (UniProt P0DP23); test: FRET or BRET

4DMN-labeled M13 peptide (M13, the calmodulin-binding peptide, with the 4DMN amino acid at position 8)
4DMN fluorescence increase at 505 nm (Ca2+-bound complex over apo-state) [1]: 180 fold
4DMN fluorescence increase at 505 nm (Ca2+-bound complex over apo-state) [2]: 98 fold
4DMN fluorescence increase at 505 nm (Ca2+-bound complex over apo-state) [3]: 43 fold
FRET fluorescence increase (Ca2+-bound over apo-state) [4]: 23 fold
FRET fluorescence increase at 611 nm [5]: 5.5 fold
increase of the direct fluorescence emission from 4DMN [5]: 114 fold

4DMN/Alexa 555-labeled M13 peptide (4DMN at position 8, Alexa Fluor 555 on an N-terminal cysteine)
increase in the acceptor fluorescence after Ca2+ addition [6]: 4.9 fold
